Like-named read-outs stand apart in the source and are kept apart here.
Tests used:
GST-human NOGO-A56 [1] = target: T1, GST-human NOGO-A56 (human, UniProt Q9NQC3 586-785); assay: SPR (Biacore), GST-human NOGO-A56 immobilised, purified antibody as analyte; single experiment
T1 construct: GST-tagged fusion expressed in E. coli BL21 from pGEX-6P1; also called hNOGO; human NOGO 5+6 GST; not shown: Glutathione S-transferase tag encoded by vector pGEX-6P1 (N-terminal, with vector linker)
T1 sequence: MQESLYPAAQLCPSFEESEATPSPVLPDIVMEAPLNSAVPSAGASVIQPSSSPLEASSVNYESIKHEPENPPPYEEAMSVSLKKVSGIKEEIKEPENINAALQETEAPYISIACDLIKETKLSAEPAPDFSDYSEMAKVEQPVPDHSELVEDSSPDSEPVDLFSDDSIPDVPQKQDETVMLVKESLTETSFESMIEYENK

GST-human NOGO-A56 [2] = target: T1, GST-human NOGO-A56; assay: as above; remark: listed apart in the source
GST-human NOGO-A56 [3] = target: T1, GST-human NOGO-A56; assay: as above; remark: listed apart in the source
GST-human NOGO-A56 [4] = target: T1, GST-human NOGO-A56; assay: SPR off-rate ranking, supernatant from small-scale transient transfection over immobilised GST-human NOGO-A56; single experiment

B1: H22L16 (antibody, human IgG1, kappa, V domains shown)
VH: QVQLVQSGAEVKKPGASVKVSCKASGYTFTSYWMHWVKQRPGQGLEWIGNINPSNGGTNYNEKFKSKATMTRDTSTSTAYMELSSLRSEDTAVYYCELGQGYWGQGTLVTVSS
VL: DIVMTQSPLSNPVTLGQPVSISCRSSKSLLYKDGKTYLNWFLQRPGQSPQLLIYLMSTRASGVPDRFSGGGSGTDFTLKISRVEAEDVGVYYCQQLVEYPLTFGQGTKLEIKR
notes: human gamma1 mutated constant region, human kappa
- Kd (GST-human NOGO-A56 [1]): 1.33 nM
- koff (GST-human NOGO-A56 [1]): 0.00759 s⁻¹
- kon (GST-human NOGO-A56 [1]): 5.69e+06 M⁻¹ s⁻¹
- Kd (GST-human NOGO-A56 [2]): 1.47 nM
- koff (GST-human NOGO-A56 [2]): 0.0069 s⁻¹
- kon (GST-human NOGO-A56 [2]): 4.9e+06 M⁻¹ s⁻¹
- Kd (GST-human NOGO-A56 [3]): 1.32 nM
- koff (GST-human NOGO-A56 [3]): 0.00767 s⁻¹
- kon (GST-human NOGO-A56 [3]): 5.83e+06 M⁻¹ s⁻¹
- koff (GST-human NOGO-A56 [4]): 0.00778 s⁻¹

B2: H21Lc (antibody, human IgG1, kappa, V domains shown)
VH: QVQLVQSGAEVKKPGASVKVSCKASGYTFTSYWMHWVRQRPGQGLEWIGNINPSNGGTNYNEKFKSKATMTRDTSTSTAYMELSSLRSEDTAVYYCELGQGYWGQGTLVTVSS
VL: DIVITQDELSNPVTSGESVSISCRSSKSLLYKDGKTYLNWFLQRPGQSPQLLIYLMSTRASGVSDRFSGSGSGTDFTLEISRVKAEDVGVYYCQQLVEYPLTFGAGTKLELKR
- koff (GST-human NOGO-A56 [4]): 0.00569 s⁻¹

B3: H19Lc (antibody, human IgG1, kappa, V domains shown)
VH: QVQLVQSGAEVKKPGASVKVSCKASGYTFTSYWMHWVRQRPGQGLEWIGNINPSNGGTNYNEKFKSRATMTRDTSTSTAYMELSSLRSEDTAVYYCELGQGYWGQGTLVTVSS
VL: DIVITQDELSNPVTSGESVSISCRSSKSLLYKDGKTYLNWFLQRPGQSPQLLIYLMSTRASGVSDRFSGSGSGTDFTLEISRVKAEDVGVYYCQQLVEYPLTFGAGTKLELKR
- koff (GST-human NOGO-A56 [4]): 0.00595 s⁻¹

B4: H23Lc (antibody, human IgG1, kappa, V domains shown)
VH: QVQLVQSGAEVKKPGASVKVSCKASGYTFTSYWMHWVKQRPGQGLEWIGNINPSNGGTNYNEKFKSKATMTVDTSTSTAYMELSSLRSEDTAVYYCELGQGYWGQGTLVTVSS
VL: DIVITQDELSNPVTSGESVSISCRSSKSLLYKDGKTYLNWFLQRPGQSPQLLIYLMSTRASGVSDRFSGSGSGTDFTLEISRVKAEDVGVYYCQQLVEYPLTFGAGTKLELKR
- koff (GST-human NOGO-A56 [4]): 0.00342 s⁻¹

B5: H24Lc (antibody, human IgG1, kappa, V domains shown)
VH: QVQLVQSGAEVKKPGASVKVSCKASGYTFTSYWMHWVKQRPGQGLEWIGNINPSNGGTNYNEKFKSKATLTVDTSTSTAYMELSSLRSEDTAVYYCELGQGYWGQGTLVTVSS
VL: DIVITQDELSNPVTSGESVSISCRSSKSLLYKDGKTYLNWFLQRPGQSPQLLIYLMSTRASGVSDRFSGSGSGTDFTLEISRVKAEDVGVYYCQQLVEYPLTFGAGTKLELKR
- koff (GST-human NOGO-A56 [4]): 0.00383 s⁻¹

B6: H20Lc (antibody, human IgG1, kappa, V domains shown)
VH: QVQLVQSGAEVKKPGASVKVSCKASGYTFTSYWMHWVRQAPGQGLEWIGNINPSNGGTNYNEKFKSKATMTRDTSTSTAYMELSSLRSEDTAVYYCELGQGYWGQGTLVTVSS
VL: DIVITQDELSNPVTSGESVSISCRSSKSLLYKDGKTYLNWFLQRPGQSPQLLIYLMSTRASGVSDRFSGSGSGTDFTLEISRVKAEDVGVYYCQQLVEYPLTFGAGTKLELKR
- koff (GST-human NOGO-A56 [4]): 0.00507 s⁻¹

B7: H24L16 (antibody, human IgG1, kappa, V domains shown)
VH: QVQLVQSGAEVKKPGASVKVSCKASGYTFTSYWMHWVKQRPGQGLEWIGNINPSNGGTNYNEKFKSKATLTVDTSTSTAYMELSSLRSEDTAVYYCELGQGYWGQGTLVTVSS
VL: DIVMTQSPLSNPVTLGQPVSISCRSSKSLLYKDGKTYLNWFLQRPGQSPQLLIYLMSTRASGVPDRFSGGGSGTDFTLKISRVEAEDVGVYYCQQLVEYPLTFGQGTKLEIKR
notes: as for B1
- Kd (GST-human NOGO-A56 [2]): 3.7 nM
- koff (GST-human NOGO-A56 [2]): 0.0069 s⁻¹
- kon (GST-human NOGO-A56 [2]): 1.9e+06 M⁻¹ s⁻¹
- Kd (GST-human NOGO-A56 [3]): 2.49 nM
- koff (GST-human NOGO-A56 [3]): 0.00572 s⁻¹
- kon (GST-human NOGO-A56 [3]): 2.3e+06 M⁻¹ s⁻¹
- koff (GST-human NOGO-A56 [4]): 0.00585 s⁻¹

B8: H16L18 (antibody, human IgG1, kappa, V domains shown)
VH: QVQLVQSGAEVKKPGASVKVSCKASGYTFTSYWMHWVKQRPGQGLEWIGNINPSNGGTNYNEKFKSKATLTVDKSTSTAYMELSSLRSEDTAVYYCELGQGYWGQGTLVTVSS
VL: DIVMTQDPLSNPVTLGQPVSISCRSSKSLLYKDGKTYLNWFLQRPGQSPQLLIYLMSTRASGVSDRFSGSGSGTDFTLKISRVEAEDVGVYYCQQLVEYPLTFGQGTKLEIKR
- koff (GST-human NOGO-A56 [4]): 0.00566 s⁻¹

B9: H22Lc (antibody, human IgG1, kappa, V domains shown)
VH: QVQLVQSGAEVKKPGASVKVSCKASGYTFTSYWMHWVKQRPGQGLEWIGNINPSNGGTNYNEKFKSKATMTRDTSTSTAYMELSSLRSEDTAVYYCELGQGYWGQGTLVTVSS
VL: DIVITQDELSNPVTSGESVSISCRSSKSLLYKDGKTYLNWFLQRPGQSPQLLIYLMSTRASGVSDRFSGSGSGTDFTLEISRVKAEDVGVYYCQQLVEYPLTFGAGTKLELKR
- koff (GST-human NOGO-A56 [4]): 0.00467 s⁻¹

B10: H24L13 (antibody, human IgG1, kappa, V domains shown)
VH: QVQLVQSGAEVKKPGASVKVSCKASGYTFTSYWMHWVKQRPGQGLEWIGNINPSNGGTNYNEKFKSKATLTVDTSTSTAYMELSSLRSEDTAVYYCELGQGYWGQGTLVTVSS
VL: DIVMTQSPLSLPVTLGQPASISCRSSKSLLYKDGKTYLNWFQQRPGQSPQLLIYLMSTRASGVPDRFSGGGSGTDFTLKISRVEAEDVGVYYCQQLVEYPLTFGQGTKLEIKR
- koff (GST-human NOGO-A56 [4]): 0.00996 s⁻¹

B11: H23L13 (antibody, human IgG1, kappa, V domains shown)
VH: QVQLVQSGAEVKKPGASVKVSCKASGYTFTSYWMHWVKQRPGQGLEWIGNINPSNGGTNYNEKFKSKATMTVDTSTSTAYMELSSLRSEDTAVYYCELGQGYWGQGTLVTVSS
VL: DIVMTQSPLSLPVTLGQPASISCRSSKSLLYKDGKTYLNWFQQRPGQSPQLLIYLMSTRASGVPDRFSGGGSGTDFTLKISRVEAEDVGVYYCQQLVEYPLTFGQGTKLEIKR
- koff (GST-human NOGO-A56 [4]): 0.00956 s⁻¹

B12: H16L13 (antibody, human IgG1, kappa)
heavy: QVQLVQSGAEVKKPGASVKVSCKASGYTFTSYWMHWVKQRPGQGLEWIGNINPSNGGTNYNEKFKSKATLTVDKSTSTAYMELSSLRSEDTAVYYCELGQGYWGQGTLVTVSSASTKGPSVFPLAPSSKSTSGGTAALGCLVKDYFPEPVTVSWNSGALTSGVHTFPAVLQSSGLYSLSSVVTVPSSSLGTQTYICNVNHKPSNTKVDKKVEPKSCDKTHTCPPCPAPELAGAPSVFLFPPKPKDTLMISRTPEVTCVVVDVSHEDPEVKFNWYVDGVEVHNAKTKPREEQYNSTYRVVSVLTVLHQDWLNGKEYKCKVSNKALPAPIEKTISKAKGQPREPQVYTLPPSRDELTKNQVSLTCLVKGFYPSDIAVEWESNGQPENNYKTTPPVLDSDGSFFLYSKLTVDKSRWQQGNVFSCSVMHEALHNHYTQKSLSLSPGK
light: DIVMTQSPLSLPVTLGQPASISCRSSKSLLYKDGKTYLNWFQQRPGQSPQLLIYLMSTRASGVPDRFSGGGSGTDFTLKISRVEAEDVGVYYCQQLVEYPLTFGQGTKLEIKRTVAAPSVFIFPPSDEQLKSGTASVVCLLNNFYPREAKVQWKVDNALQSGNSQESVTEQDSKDSTYSLSSTLTLSKADYEKHKVYACEVTHQGLSSPVTKSFNRGEC
- Kd (GST-human NOGO-A56 [1]): 2.53 nM
- koff (GST-human NOGO-A56 [1]): 0.0121 s⁻¹
- kon (GST-human NOGO-A56 [1]): 4.76e+06 M⁻¹ s⁻¹
- koff (GST-human NOGO-A56 [4]): 0.0138 s⁻¹

B13: H19L13 (antibody, human IgG1, kappa, V domains shown)
VH: QVQLVQSGAEVKKPGASVKVSCKASGYTFTSYWMHWVRQRPGQGLEWIGNINPSNGGTNYNEKFKSRATMTRDTSTSTAYMELSSLRSEDTAVYYCELGQGYWGQGTLVTVSS
VL: DIVMTQSPLSLPVTLGQPASISCRSSKSLLYKDGKTYLNWFQQRPGQSPQLLIYLMSTRASGVPDRFSGGGSGTDFTLKISRVEAEDVGVYYCQQLVEYPLTFGQGTKLEIKR
- koff (GST-human NOGO-A56 [4]): 0.013 s⁻¹

B14: H6L13 (antibody, human IgG1, kappa, V domains shown)
VH: QVQLVQSGAEVKKPGASVKVSCKASGYTFTSYWMHWVRQAPGQGLEWIGNINPSNGGTNYNEKFKSRATMTRDTSTSTAYMELSSLRSEDTAVYYCELGQGYWGQGTLVTVSS
VL: DIVMTQSPLSLPVTLGQPASISCRSSKSLLYKDGKTYLNWFQQRPGQSPQLLIYLMSTRASGVPDRFSGGGSGTDFTLKISRVEAEDVGVYYCQQLVEYPLTFGQGTKLEIKR
- Kd (GST-human NOGO-A56 [1]): 8.1 nM
- koff (GST-human NOGO-A56 [1]): 0.0155 s⁻¹
- kon (GST-human NOGO-A56 [1]): 1.91e+06 M⁻¹ s⁻¹
- Kd (GST-human NOGO-A56 [2]): 6.4 nM
- koff (GST-human NOGO-A56 [2]): 0.014 s⁻¹
- kon (GST-human NOGO-A56 [2]): 2.2e+06 M⁻¹ s⁻¹
- Kd (GST-human NOGO-A56 [3]): 7.76 nM
- koff (GST-human NOGO-A56 [3]): 0.0157 s⁻¹
- kon (GST-human NOGO-A56 [3]): 2.02e+06 M⁻¹ s⁻¹

B15: H23L16 (antibody, human IgG1, kappa, V domains shown)
VH: QVQLVQSGAEVKKPGASVKVSCKASGYTFTSYWMHWVKQRPGQGLEWIGNINPSNGGTNYNEKFKSKATMTVDTSTSTAYMELSSLRSEDTAVYYCELGQGYWGQGTLVTVSS
VL: DIVMTQSPLSNPVTLGQPVSISCRSSKSLLYKDGKTYLNWFLQRPGQSPQLLIYLMSTRASGVPDRFSGGGSGTDFTLKISRVEAEDVGVYYCQQLVEYPLTFGQGTKLEIKR
notes: as for B1
- Kd (GST-human NOGO-A56 [2]): 3.8 nM
- koff (GST-human NOGO-A56 [2]): 0.0064 s⁻¹
- kon (GST-human NOGO-A56 [2]): 1.9e+06 M⁻¹ s⁻¹
- Kd (GST-human NOGO-A56 [3]): 1.99 nM
- koff (GST-human NOGO-A56 [3]): 0.00587 s⁻¹
- kon (GST-human NOGO-A56 [3]): 2.95e+06 M⁻¹ s⁻¹
- koff (GST-human NOGO-A56 [4]): 0.00606 s⁻¹

B16: H21L13 (antibody, human IgG1, kappa, V domains shown)
VH: QVQLVQSGAEVKKPGASVKVSCKASGYTFTSYWMHWVRQRPGQGLEWIGNINPSNGGTNYNEKFKSKATMTRDTSTSTAYMELSSLRSEDTAVYYCELGQGYWGQGTLVTVSS
VL: DIVMTQSPLSLPVTLGQPASISCRSSKSLLYKDGKTYLNWFQQRPGQSPQLLIYLMSTRASGVPDRFSGGGSGTDFTLKISRVEAEDVGVYYCQQLVEYPLTFGQGTKLEIKR
- koff (GST-human NOGO-A56 [4]): 0.012 s⁻¹

B17: H19L16 (antibody, human IgG1, kappa, V domains shown)
VH: QVQLVQSGAEVKKPGASVKVSCKASGYTFTSYWMHWVRQRPGQGLEWIGNINPSNGGTNYNEKFKSRATMTRDTSTSTAYMELSSLRSEDTAVYYCELGQGYWGQGTLVTVSS
VL: DIVMTQSPLSNPVTLGQPVSISCRSSKSLLYKDGKTYLNWFLQRPGQSPQLLIYLMSTRASGVPDRFSGGGSGTDFTLKISRVEAEDVGVYYCQQLVEYPLTFGQGTKLEIKR
- koff (GST-human NOGO-A56 [4]): 0.00873 s⁻¹
